In PMC13426413 (Science Advances, 2026):
Ends that are not written are not given here.

Legend:
[1] = target: T1, human Tom70 (residues 108–608) (human, UniProt O94826 108-608); assay: ITC
T1 sequence: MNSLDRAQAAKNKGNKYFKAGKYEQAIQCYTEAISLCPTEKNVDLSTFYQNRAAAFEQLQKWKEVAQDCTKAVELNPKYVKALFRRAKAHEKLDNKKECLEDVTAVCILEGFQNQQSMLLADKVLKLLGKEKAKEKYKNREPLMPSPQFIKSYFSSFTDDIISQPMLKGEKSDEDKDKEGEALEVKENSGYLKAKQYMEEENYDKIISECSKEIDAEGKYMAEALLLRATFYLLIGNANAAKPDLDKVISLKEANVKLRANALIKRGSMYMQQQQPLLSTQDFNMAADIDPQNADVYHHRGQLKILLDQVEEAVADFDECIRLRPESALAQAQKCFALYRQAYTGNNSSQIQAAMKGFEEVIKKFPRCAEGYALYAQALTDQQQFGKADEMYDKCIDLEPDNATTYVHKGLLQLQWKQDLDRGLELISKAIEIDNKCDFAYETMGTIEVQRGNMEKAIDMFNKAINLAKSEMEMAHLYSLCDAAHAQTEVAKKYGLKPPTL

[2] = target: Tom70:Hsp90_(EEVD) complex (human, UniProt O94826 108-608); assay: ITC
[3] = target: T2, ^19F-labeled Tom70 (5F-tryptophan, residues 108–608) (human, UniProt O94826 108-608, 5-fluoro-tryptophan at W169 and W523); assay: NMR titration
T2 sequence: T1 sequence

[4] = target: T1, human Tom70 (residues 108–608); assay: cryo-EM structure
[5] = target: Tom70:Orf9b_(Helix) complex (human | SARS-CoV-2, UniProt O94826 108-608); assay: ITC
[6] = target: ^19F Tom70:Orf9b_(Helix) complex (human | SARS-CoV-2, UniProt O94826 108-608, 5-fluoro-tryptophan at W169 and W523); assay: NMR titration

Measured: binding result

B1: Orf9b_(Helix) peptide (peptide)
peptide: IILRLGSPLSLNMARKTLNSLEDKAFQLTPIAVQY
binds: [1] | [2] | [3]

B2: Hsp90_(EEVD) peptide (peptide)
peptide: YDTSRMEEVD-OH
binds: [4] | [5] | [6]
